What all share (assay): two-hybrid library CCNG1;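 further: natural log of median RNA to DNA barcode read ratio; higher means stronger binding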
One assay concerns the target T1, 4H3961-bN.
T1 chain: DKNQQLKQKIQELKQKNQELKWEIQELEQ

For a further assay, the target named is T2, 4H344-bN.
T2 chain: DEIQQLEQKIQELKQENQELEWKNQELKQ

The target in a further assay is T3, 4H2619-bN.
T3 chain: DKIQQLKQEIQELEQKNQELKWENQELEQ

In the next assay the target is T4, 4H470-bN.
T4 chain: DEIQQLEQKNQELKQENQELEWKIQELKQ

The next assay concerns the target T5, 4H363-bN.
T5 chain: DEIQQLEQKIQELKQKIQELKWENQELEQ

The target of the next assay is T6, 4H2568-bN.
T6 chain: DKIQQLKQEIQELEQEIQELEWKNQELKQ

The target in a further assay is T7, 4H2745-bN.
T7 chain: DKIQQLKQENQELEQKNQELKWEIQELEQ

The next assay concerns the target T8, 4H3907-bN.
T8 chain: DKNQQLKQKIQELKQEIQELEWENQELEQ

The target of the next assay is T9, 4H3974-bH.
T9 chain: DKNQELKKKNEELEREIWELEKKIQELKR

In another assay the target is T10, 4H1393-bH.
T10 chain: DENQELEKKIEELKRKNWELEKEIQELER

A further assay deals with T11, 4H1710-bH.
T11 chain: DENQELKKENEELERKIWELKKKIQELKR

For a further assay, the target named is T12, 4H584-bH.
T12 chain: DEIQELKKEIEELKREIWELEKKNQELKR

Another assay has as its target T13, 4H3129-bH.
T13 chain: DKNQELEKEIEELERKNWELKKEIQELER

For a further assay, the target named is T14, 4H1449-bH.
T14 chain: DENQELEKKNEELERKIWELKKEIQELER

In another assay the target is T15, 4H3628-bA.
T15 chain: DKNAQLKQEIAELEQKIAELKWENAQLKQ

For the next assay, the target named is T16, 4H3817-bH.
T16 chain: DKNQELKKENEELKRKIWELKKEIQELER

The target in a further assay is T17, 4H3638-bH.
T17 chain: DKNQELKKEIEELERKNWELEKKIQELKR

The next assay addresses T18, 4H2702-bA.
T18 chain: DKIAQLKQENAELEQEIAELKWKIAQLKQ

In the next assay the target is T19, 4H3172-bH.
T19 chain: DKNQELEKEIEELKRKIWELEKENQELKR

Another assay concerns the target T20, 4H850-bH.
T20 chain: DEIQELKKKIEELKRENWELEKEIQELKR

For another assay, the target named is T21, 4H1629-bH.
T21 chain: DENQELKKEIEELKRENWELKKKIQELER

The next assay addresses T22, 4H570-bH.
T22 chain: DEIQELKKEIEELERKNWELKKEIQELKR

A further assay addresses T23, 4H1804-bH.
T23 chain: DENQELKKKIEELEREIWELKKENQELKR

The target in a further assay is T24, 4H3414-bH.
T24 chain: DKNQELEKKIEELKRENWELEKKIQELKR

In a further assay the target is T25, 4H619-bH.
T25 chain: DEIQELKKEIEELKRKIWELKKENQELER

Another assay has as its target T26, 4H906-bH.
T26 chain: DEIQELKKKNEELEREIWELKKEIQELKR

Take DKIQQLKQEIQELEQEIQELEWKNQELKQ [4H2568-bN]: the interaction score was 1.52 with 4H3961-bN; -0.22 with 4H344-bN; -0.118 with 4H2619-bN; 0.618 with 4H470-bN; 0.932 in the assay with 4H363-bN; 0.798 with 4H2568-bN. For the same molecule, the interaction score with 4H2745-bN was -1.2; in the assay with 4H3907-bN, 0.402.
As for DENQELEKKIEELKRKNWELEKEIQELER [4H1393-bH], the interaction score is 0.0308 with 4H3974-bH; -0.111 with 4H1393-bH; -0.501 with 4H1710-bH; -0.3 with 4H584-bH; 0.0961 in the assay with 4H3129-bH; -2.77 in the assay with 4H1449-bH. Also, the interaction score in the assay with 4H3628-bA was -0.789; with 4H3817-bH it was -0.474; in the assay with 4H3638-bH, 1.2; with 4H2702-bA, -2.15; in the assay with 4H3172-bH, -0.553; with 4H850-bH it was 0.00584. The interaction score in the assay with 4H1629-bH was -0.557; with 4H570-bH, -0.453; with 4H1804-bH, -1.63; with 4H3414-bH, 1; in the assay with 4H619-bH, -1.79; with 4H906-bH, -1.05.

(Values after paper PMC10397247.)
